Usually Kd stands for a measure of binding affinity in units of concentration. A lower Kd goes with tighter binding. One may read the koff as the rate constant with which the complex falls apart. Higher therefore signals a short-lived complex. The term kon denotes the rate constant with which the complex forms. Low readings indicate slow association, high ones fast association.

The results in this text go back to patent US20260167741A1.

For test [1], the target named is monomeric FcγRIIa-131H (human) (UniProt P12318). The experiment in a line: BLI (Octet), steady-state, antibody on FAB2G sensor. On the technique in general: Biolayer interferometry detects binding as a change in optical thickness at a sensor tip.
monomeric FcγRIIa-131H (human), sequence (P12318 34-217 limits assumed): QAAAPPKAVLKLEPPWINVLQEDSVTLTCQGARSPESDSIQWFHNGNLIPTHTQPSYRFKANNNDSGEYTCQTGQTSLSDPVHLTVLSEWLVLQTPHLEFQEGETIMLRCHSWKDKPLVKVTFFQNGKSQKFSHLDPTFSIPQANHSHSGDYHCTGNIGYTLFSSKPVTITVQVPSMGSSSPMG
The target of test [2] is monomeric FcγRIIa-131R (human) (UniProt P12318). The description is as above.
monomeric FcγRIIa-131R (human), sequence (P12318 34-217 H167R limits assumed): as the sequence (P12318 34-217 limits assumed) above, with H134R counted along it
Test [3] addresses monomeric FcγRIIb (human) (UniProt P31994). The description is as above.
For a further test, the target named is monomeric FcγRI (human) (UniProt P12314). Description: BLI (Octet), antibody on FAB2G sensor, monomeric FcγR in solution.
monomeric FcγRI (human), sequence (P12314 16-292 limits assumed): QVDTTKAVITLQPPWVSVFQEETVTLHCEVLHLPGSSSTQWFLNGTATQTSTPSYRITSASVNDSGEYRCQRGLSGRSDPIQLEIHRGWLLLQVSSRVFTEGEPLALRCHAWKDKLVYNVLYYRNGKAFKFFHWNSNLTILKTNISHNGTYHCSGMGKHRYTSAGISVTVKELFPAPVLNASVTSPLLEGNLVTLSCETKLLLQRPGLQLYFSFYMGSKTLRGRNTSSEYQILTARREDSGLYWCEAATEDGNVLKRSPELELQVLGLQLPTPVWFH
Test [4] concerns the target monomeric FcγRIIIa-158F (human) (UniProt P08637). The test is described as above.
The target of test [5] is monomeric FcγRIIIa-158V (human) (UniProt P08637). The test is described as above.
monomeric FcγRIIIa-158V (human), sequence (P08637 17-208 F176V limits assumed): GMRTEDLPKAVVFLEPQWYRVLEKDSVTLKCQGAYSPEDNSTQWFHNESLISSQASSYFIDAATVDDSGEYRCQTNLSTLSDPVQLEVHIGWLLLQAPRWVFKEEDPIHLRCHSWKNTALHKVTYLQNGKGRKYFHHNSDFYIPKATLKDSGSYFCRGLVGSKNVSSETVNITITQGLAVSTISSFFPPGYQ
The target of test [6] is tetrameric FcγRI-streptavidin-His labelled with Alexa647 (human) (UniProt P12314). Description: flow cytometry: SKOV-3 (HER2-expressing) cells treated with 100 nM antibody, then tetrameric FcγRI-Alexa647 (50 or 100 nM by paragraph 186, not said on the sheet). (In general: A flow cytometer gives signals particle by particle.)
tetrameric FcγRI-streptavidin-His labelled with Alexa647 (human), sequence (P12314 other isoform, or with tags, fused parts or gaps limits assumed): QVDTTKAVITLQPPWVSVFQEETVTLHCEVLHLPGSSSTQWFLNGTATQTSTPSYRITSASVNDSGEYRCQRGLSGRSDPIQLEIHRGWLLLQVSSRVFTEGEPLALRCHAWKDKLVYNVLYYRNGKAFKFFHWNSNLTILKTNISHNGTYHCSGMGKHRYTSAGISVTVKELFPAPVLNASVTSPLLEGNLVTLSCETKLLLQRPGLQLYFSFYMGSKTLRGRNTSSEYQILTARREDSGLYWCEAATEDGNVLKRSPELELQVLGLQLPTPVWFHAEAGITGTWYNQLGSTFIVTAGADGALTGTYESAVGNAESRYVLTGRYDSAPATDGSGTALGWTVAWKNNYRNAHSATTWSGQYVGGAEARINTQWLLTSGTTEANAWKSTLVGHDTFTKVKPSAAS

monomeric FcγRIIIa-158F (human), sequence (P08637 17-208 limits assumed): as the sequence (P08637 17-208 F176V limits assumed) above, with V160F counted along it
monomeric FcγRIIb (human), sequence (P31994 43-217 limits assumed): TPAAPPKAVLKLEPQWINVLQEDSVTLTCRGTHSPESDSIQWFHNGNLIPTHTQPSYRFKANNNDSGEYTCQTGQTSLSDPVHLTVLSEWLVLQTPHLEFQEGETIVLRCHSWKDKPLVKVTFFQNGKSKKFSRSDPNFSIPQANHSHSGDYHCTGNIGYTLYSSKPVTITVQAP

Trastuzumab-LALA (antibody): the Kd in test [1] worked out at 38 µM; in test [2], 22 µM; in test [3], 390 µM; in the test with monomeric FcγRI (human) it was 0.136 µM; in test [4], 1.36 µM; in test [5], 1.19 µM. For the same substance, the results for the dissociation rate constant (koff) (in the test with monomeric FcγRI (human); in test [4]; in test [5]) were 0.0203 s⁻¹, 0.033 s⁻¹ and 0.0833 s⁻¹, respectively. Moreover, the results for the association rate constant (kon) (with monomeric FcγRI (human); in test [4]; in test [5]) were 149000 M⁻¹ s⁻¹, 24300 M⁻¹ s⁻¹ and 70200 M⁻¹ s⁻¹, respectively. The same substance came in with an MFI in test [6] of 709.
